In the domain aggregation screens of Martell et al. (2025):

Test: soluble fraction after stress (log2 fold change); higher = more stays soluble; pooled small domains, quantitative proteomics
Settings: stress: 75 degC
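Further: 20 min heating vs room temperature control held 20 min.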

Going from “HMKSARQIAILEIIAEKSIETQEDLADALRLRGFQVTQATVSRDIKELRLVKALAPDGTYRYATAEK” to “HMKSEIRKKNSQIILDAAEHEFSVHGYRGTSVQMIADRSGLPKANLHYYYKSKSALYGAVLDRIL”, the “soluble fraction (log2)” value rises from -1.57 to 0.215.

Going from “HMKSERHALILSLIEKKNVETQEDLAELLKERGVAVTQATVSRDIKELRLIKVLSETGGYKYATVDKAE” to “HMKSIETVAELVAELKKLNPNAKISNIDGTYTLEEDINTITLPKDFKYDNNLGINNKIDDFTPYISLDVKA”, the “soluble fraction (log2)” value rises from -0.908 to 0.662.

Compared with “HMKSIRIPFILTEGPNSQKITIDIDSDEEFRIGDVFDEDDKLWSINQILISGDRKAKMAIASEVTSISALR”, “HMKSKYLIKIEGDFDEKDLYKYLINVSIVNHTKNNGFTEVEFYNDNYSLQQNFLKSMLNDGIIITEFKKVE” is higher in “soluble fraction (log2)” value: -2.01 for the first, -0.49 for the second.

First: HMKSLHSEVTDRIRQLIVESHLQPGQRVPELEISRDLGVSRTPIREALKVLAAEGLVELLPLRGAMVK
Second: HMKSLLTARQLEVFEIARNKGYWTTPRKISLVELSKLLDISKSTLSVLLHSIEGKVMEEFYEEIRQ
The “soluble fraction (log2)” value of the first is higher: -0.0555 for the first, -2.22 for the second.

Going from “HMKSNIIPLSLKKPQRLDIFLTNYFVDLSRTQIKKMITDGNIKVNDLIAKPSLKLIGDEIIFYTLPK” to “HMKSNNPLDHVRVKQRGASWAYYFEKAKVDGKRRRGEGGGYATEQDARMAGVEAYNAYIGGGAK”, the “soluble fraction (log2)” value rises from -1.46 to -0.172.

Compared with “HMKSPVKLILRGSIYHIKISAVVNGQRIFVRESSHTTDKREAEQYANKRFAQLVEETEFRTN”, “HMKSQSIFNVKKGDTLSHIAVHVLKKNKQKVTPEAINKMVSNIAFRNKIKNPDLIFPGQKLVLEY” is higher in “soluble fraction (log2)” value: -1.18 for the first, -0.169 for the second.

Compared with “HMKSQVVAYSDFVKAVNQKQINEVQIQGDKIRAINKAGEEITVTWLQNDQKLMDDLLDNNVKTIFLE”, “HMKSSYSGNFKQNVVEYMHNNHLSATETANHFKLGGGSVVLRWERIYYEEGPQALYEERRGR” is lower in “soluble fraction (log2)” value: 0.0189 for the first, -1.26 for the second.

Going from “HMKSYAQIAEILSGQQPNTSRKEGSNLAVHADWIDALIAKYGTALRPEEANEVVKKEIGIVFSHVLEN” to “HMKSYQKITPATEGNYLTTYREGDDIKTYEGVKAMYTPADFDASSVREITPEEHQSYQKAKEQALQEETEQ”, the “soluble fraction (log2)” value rises from -0.412 to -0.204.

“HMKTALDEAKDFLNGALSKGHRPASDVVDEAKEASISEKTLKRAKLAIGIITRKEGFGSEGKWVWELPAR” and “HMKTATAKIKATPFGWLRVRETPSLNGAEIARVNSGESYKILERGEGWIKIKVSDTVEGWVSEAYVELS” are within 0.2 log units of each other in “soluble fraction (log2)” value: -0.375 for the first, -0.244 for the second.

First: HMKTEKYIQVISGTVNVRSGPGTSYAEIAKIDASQIYVVTAKEGEWLKISLANGTIGYVAGWLVKEVTG
Second: HMKTEVNITPGIIDWIERYVQTDKISSSMTEDFQHWKSGTKKPTFNQVEAFSKAINVPLGYFFLKTPPAE
The “soluble fraction (log2)” value of the first is lower: -1.47 for the first, -0.725 for the second.

First: HMKTFSFEILADTVKKQRKAKGMTQAELSEATGINRSMIGQMENMTFKPSIEQLEALSQALDFNVIDLYTE
Second: HMKTGHLPVTVIIDGRIISDNLYKTGLSNNWLADQLRKNSIKSSEDVFFAYLNPERKFIYQLRSNS
The “soluble fraction (log2)” value of the first is higher: -0.325 for the first, -1.49 for the second.

First: HMKTGNIVMVNLGWKGKYYSIKMFFPQVSKPSRKDVQDQIEKIYPGGKLYTFVVSNYEPGEPMLHA
Second: HMKTITLDEAQEIALAEVDGKVTRAVEETDDGRSYYEFDIITNDQKHELEVDASSGKITKNEIDEDYVPS
The “soluble fraction (log2)” value of the first is lower: -1.41 for the first, 0.0581 for the second.

Going from “HMKTITVEDEQAGKRLDKALAELFPHYSRSALEKLIKEGQVLVNKSFVKSKYSLKLGDEISLQFEQL” to “HMKTKILAPIPGSIMVVDVKVGDTVKVGDRLVQLEAMKMENNITSEKAGKITAVLVTAGQKVLQNEVMIEL”, the “soluble fraction (log2)” value falls from -0.325 to -1.01.

First: HMKTLLSMNIKNLRKKKNMTLEELAEKVGTSKQTIQRYESGKISNIPSDKIELLAKYLDTTPAKLMGW
Second: HMKTLNKRQQDIINLAREEGFVTVEHLSEYFKVTQQTIRRDLGYLSENLYLARTYGGAFFQS
The “soluble fraction (log2)” value of the first is higher: -0.139 for the first, -0.854 for the second.

Going from “HMKTTKLEELDMQKEFILKNGKYGFGVYIGGKYIGLTDIGTVNSFKDSLQLPVVSLSDIDFKTFAEKF” to “HMKTYEILFDILSRESDYISGEKLAQELGISRTSIWKAIQHLEKEGVHIESVKNKGYKLLSGDLLIAEKI”, the “soluble fraction (log2)” value falls from -1.27 to -1.77.

“HMKTYGGDNSLHKFDEHHSWMVAKYGPVVKQTINGETKWLKVKKDLTLAQVKKMKLEDVLLPKSQT” and “HMKVDRLVSMILILLEQQRVGAQELADRFEVSVRTIYRDMEAINQAGIPVRSTSGVGGGFEIM” are within 0.2 log units of each other in “soluble fraction (log2)” value: -0.534 for the first, -0.471 for the second.

First: HMKVFREERLQLILEKLIHEKKVVVSDLVKYFNVSPSLIRMDLAELEKRDLILRTHGGAILPD
Second: HMKVKEYKLVDWISTFTKNEGYGISQKAAMLLAEFLGDDLSRIANEIEKLKLLVEKGTTINDVHIEENI
The “soluble fraction (log2)” value of the first is lower: -2.9 for the first, -1.09 for the second.

Going from “HMKVLFLESIEGSASMGEIKDVANGYARNFLFPNGFAVPATPKNLKNVEELQAKELEIQTERDNWAA” to “HMKVSDLIGMLGRVTGELAPTGIVLVGNKTWTAISEDASVIASGEQVQVRSVAGLILTVSHQVD”, the “soluble fraction (log2)” value falls from -0.016 to -2.32.

First: HMKVSVPDIMDNSSLRQAEAKLRALGFRVTEPEYISGEKDWVYSVTYKGRTLNAGDKVPHEALLTLHVGNG
Second: HMKVTADVVVADRLKAWIISNNLKPGDRLPTEQKLSEELGVARHTLREGIKRLSQLGIIGSRTGSGMYVKN
The “soluble fraction (log2)” value of the first is higher: -0.163 for the first, -1.06 for the second.
